According to patent publication US20190315855 (published 2019):
Where a chain is given by its changes, count along the chain named.

T1: mouse DLL4 (cell surface) (mouse, UniProt Q9JI71)
T1 chain: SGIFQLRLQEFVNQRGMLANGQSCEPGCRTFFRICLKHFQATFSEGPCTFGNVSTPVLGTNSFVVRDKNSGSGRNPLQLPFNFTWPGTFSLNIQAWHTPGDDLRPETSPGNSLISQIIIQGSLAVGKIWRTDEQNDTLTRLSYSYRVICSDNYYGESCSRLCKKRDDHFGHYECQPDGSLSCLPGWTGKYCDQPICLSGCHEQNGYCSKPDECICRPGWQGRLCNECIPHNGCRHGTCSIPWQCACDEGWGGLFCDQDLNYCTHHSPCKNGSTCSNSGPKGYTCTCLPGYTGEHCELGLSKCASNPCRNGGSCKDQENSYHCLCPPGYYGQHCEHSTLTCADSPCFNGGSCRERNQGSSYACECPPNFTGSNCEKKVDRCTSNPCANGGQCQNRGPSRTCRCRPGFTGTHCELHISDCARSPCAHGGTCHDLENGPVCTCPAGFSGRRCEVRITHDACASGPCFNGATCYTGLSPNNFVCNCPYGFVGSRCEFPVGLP

T2: mouse DLL4 ECD (mouse, UniProt Q9JI71)
T2 chain: T1 chain

B1: 14G1 rat mAb (antibody, V domains shown)
VH: EVQLQQSGAELAKPGSSVKISCKASGYTFTNYDISWIKQTNGQGLEYLGYINTGSGGIYSNEKFKGKATLTVDKSSNTAFMQLSSLTPEDTAVYYCVREGNNFDHWGQGVKVTVSS
VL: DTVMTQSPASMSTSVGERVTVNCKASQSVGTIVAWFQQKPGQSPKRLIYLATYRHTGVPDRFIGSGFGRDFTLTISNVEAEDLAVYYCLQYGSRPFTFGAGTKLEIKR
B2: h38H12.9 (antibody, V domains shown)
VH: EVQLVESGGGVVQPGRSLRLSCAASGFTFSNYGMYWVRQAPGKGLEWVAFISHGGGITYYRDSVKGRFTISRDNSKNTLYLQMNSLRAEDTAVYYCAALNWELGIDYWGQGTMVTVSS
VL: DIQMTQSPSSLSASVGDRVTITCRASEDIYSNLAWYQQKPGKAPKLLIYAANRLQDGVPSRFSGSGSGTDFTLTISSLQPEDFATYYCLQGSKFPLTFGQGTKLEIKR
B3: h38H12.11 (antibody, V domains shown)
VH: B2 VH
VL: B2 VL with F71Y
B4: h38H12.12 (antibody, V domains shown)
VH: B2 VH
VL: EIVMTQSPATLSVSPGERATLSCRASEDIYSNLAWYQKKPGQSPRLLIYAANRLQDGVPARFSGSGSGTEYTLTISSLQSEDFAVYFCLQGSKFPLTFGQGTKLEIKR
B5: h38H12.6 (antibody, V domains shown)
VH: B2 VH with V37I, N77S, Y95H
VL: B2 VL with Q38K, A43S, F71Y, Y87F
B6: h38H12.7 (antibody, V domains shown)
VH: B2 VH with V37I, N77S, Y95H
VL: B2 VL with F71Y
B7: h38H12.5 (antibody, V domains shown)
VH: B2 VH with V37I, N77S, Y95H
VL: B2 VL
B8: h38H12.8 (antibody, V domains shown)
VH: B2 VH with V37I, N77S, Y95H
VL: B4 VL
B9: h38H12.16 (antibody, V domains shown)
VH: B2 VH with V11L, R16G, V37I, N77S, Y95H
VL: B4 VL
B10: h38H12.13 (antibody, V domains shown)
VH: B2 VH with V11L, R16G, V37I, N77S, Y95H
VL: B2 VL
B11: h38H12.15 (antibody, V domains shown)
VH: B2 VH with V11L, R16G, V37I, N77S, Y95H
VL: B2 VL with F71Y
B12: h38H12.10 (antibody, V domains shown)
VH: B2 VH
VL: B2 VL with Q38K, A43S, F71Y, Y87F
B13: h38H12.14 (antibody, V domains shown)
VH: B2 VH with V11L, R16G, V37I, N77S, Y95H
VL: B2 VL with Q38K, A43S, F71Y, Y87F
B14: h1A11.A12 (antibody, V domains shown)
VH: EVQLVESGGGLVQPGGSLRLSCAASGFTFSNFPMAWVRQAPGKGLEWVATISSSDGTTYYRDSVKGRFTISRDNAKNSLYLQMNSLRAEDTAVYYCARGYYNSPFAYWGQGTLVTVSS
VL: DIQMTQSPSSLSASVGDRVTITCRASQDIYYNLAWYQQKPGKSPKLLIFDTSSLADGVPSRFSGSGSGTDFTLTISSLQPEDFATYFCQQYDWYPPTFGQGTKLEIK
B15: h1A11.A7 (antibody, V domains shown)
VH: B14 VH
VL: B14 VL with Y31I, S43A, S53D, F87Y, W93Y
B16: 14A11 rat mAb (antibody, V domains shown)
VH: EVQLQQSGPELAKPGSSVKISCKASGYTFTNSYISWIKQTTGQGLEYVGYINTGSGGADYNEKFKGKATLTVDKSSRTAFMQLSSLTPGDSAVYYCAKSILLGSTCYFDYWGQGVLVTVSS
VL: NTVLTQSPALAVSLGQRVTISCKASRSVSSPMYSYIYWYQQKPGQQPKLLIYRASTLASGVPARFSGSGSGTDFTLNIDPVEADDIATYFCQQSWSDPFTFGSGTKLEIKR

Molecular target: T1, mouse DLL4 (cell surface)
Assay: FACS

Binder	EC50
B1	> 50.9 nM

molecular target: human DLL4 ECD (human); assay: competition ELISA
Sequence (chain, as listed by the source): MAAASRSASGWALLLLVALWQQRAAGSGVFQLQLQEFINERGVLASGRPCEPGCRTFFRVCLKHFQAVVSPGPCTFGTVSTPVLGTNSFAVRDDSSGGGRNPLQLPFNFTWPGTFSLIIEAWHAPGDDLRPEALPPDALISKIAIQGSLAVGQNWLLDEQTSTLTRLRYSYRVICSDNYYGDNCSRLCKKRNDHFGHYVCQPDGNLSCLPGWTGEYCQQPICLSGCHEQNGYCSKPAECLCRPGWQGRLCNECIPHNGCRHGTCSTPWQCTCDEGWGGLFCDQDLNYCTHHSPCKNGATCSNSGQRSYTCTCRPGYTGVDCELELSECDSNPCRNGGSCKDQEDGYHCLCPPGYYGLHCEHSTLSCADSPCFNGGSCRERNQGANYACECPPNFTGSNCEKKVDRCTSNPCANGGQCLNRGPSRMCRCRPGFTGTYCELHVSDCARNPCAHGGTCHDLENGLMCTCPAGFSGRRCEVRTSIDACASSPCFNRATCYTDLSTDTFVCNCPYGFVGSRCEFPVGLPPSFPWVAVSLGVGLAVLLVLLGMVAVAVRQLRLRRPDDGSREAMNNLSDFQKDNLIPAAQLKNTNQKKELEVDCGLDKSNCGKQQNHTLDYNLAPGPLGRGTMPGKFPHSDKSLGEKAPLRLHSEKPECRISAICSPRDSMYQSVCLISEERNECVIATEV

Binder	IC50
B2	4.16 nM
B3	3.8 nM
B4	3.23 nM
B5	27 nM
B6	12.5 nM
B7	14.8 nM
B8	8.31 nM
B9	3.77 nM
B10	5.29 nM
B11	5.71 nM
B12	3.9 nM
B13	5.84 nM

Molecular target: T2, mouse DLL4 ECD
Assay: SPR

Binder	Kd
B14	16 nM
B15	13 nM

molecular target: human DLL4 (cell surface) (human); assay: FACS
Sequence (chain, as listed by the source): as above

Binder	EC50
B16	> 50.9 nM
